Results published in patent publication US20230303699A1 (EXELIXIS, published 2023).

Columns and labels:
[1] = biological target: T1, PD-L1 on PD-L1 overexpressing CHO-K1 cells (Homo sapiens (Human), UniProt Q9NZQ7 19-290); assay: cell-based or functional assay
[2] = biological target: T2, human PD-L1-His tag (extracellular domain) (human, UniProt Q9NZQ7 19-238); assay: Octet BLI, monovalent; IgG on Fc capture sensor, soluble PD-L1-His
T2 construct: Bought from Acro Biosystems; also called Acro Cat. No. PD1H5229; soluble antigen
T2 sequence (Q9NZQ7 19-238): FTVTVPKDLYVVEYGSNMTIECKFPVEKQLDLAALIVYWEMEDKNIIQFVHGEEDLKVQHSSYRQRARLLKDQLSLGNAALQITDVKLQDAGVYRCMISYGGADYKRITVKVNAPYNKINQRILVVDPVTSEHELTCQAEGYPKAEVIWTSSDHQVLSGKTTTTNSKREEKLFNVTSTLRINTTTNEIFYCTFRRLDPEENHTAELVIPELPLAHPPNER
From the text: The bivalent interaction of binders to the biotinylated human PD-L1 (see Example 1) immobilized on a streptavidin biosensor was monitored using an Octet (Pall ForteBio) instrument. To monitor monovalent interaction, full-length IgG molecule was immobilized to a Fc capture biosensor and its interaction with soluble antigen was monitored using an Octet instrument.
First, the antibodies were immobilized on an Fc capture sensor. In the next association step, the binding interaction of PD-L1 (Acro Cat. No. PD1H5229 (PD-L1-His tag)) to the immobilized IgG was measured. […] Octet kinetic analysis software was used to calculate the kinetic and equilibrium binding constants from the rate of association and dissociation curves. The analysis was performed using global curve fit where kinetic constants were derived simultaneously from all analyte concentration included in the experiment.

[3] = biological target: T1, PD-L1 on PD-L1 overexpressing CHO-K1 …; assay: flow cytometry on PD-L1 CHO-K1 cells
Method: (§1) Cells were harvested at 70-90% confluence on the day of the assay. Cells were collected by centrifugation at 200×g for 5 minutes and media was removed. Cells were resuspended at 2×10⁶ cells per mL in cold PBS. […] 50 μL per well of the antibody dilution was plated in a 96 well V-bottom plate (Costar 3897). 50 μL per well of cell suspension was added. Plates were placed at 4° C. for 45-60 minutes.
(§2) Cells were collected by centrifugation at 400×g for 7 minutes and primary antibody was removed. […] Plates were placed at 4° C. for 30 minutes.
(§3) Cells were collected by centrifugation at 400×g for 7 minutes and secondary antibody was removed. Cells were resuspended in 50 μL per well of PBS and analyzed by flow cytometry. Binding curves were calculated using the mean fluorescence intensity (MFI) of the FITC fluorescence signal on the cells.

Mouse PD-L1 = biological target: T3, Mouse PD-L1 (mouse, UniProt Q9EP73 19-238, biotinylated); assay: Octet BLI; biotinylated mouse PD-L1 on streptavidin sensor
T3 construct: Bought, biotinylated and immobilized on a streptavidin sensor; also called mPD-L1; Acro Cat. No. PD1-M5220
T3 sequence (Q9EP73 19-238 limits assumed): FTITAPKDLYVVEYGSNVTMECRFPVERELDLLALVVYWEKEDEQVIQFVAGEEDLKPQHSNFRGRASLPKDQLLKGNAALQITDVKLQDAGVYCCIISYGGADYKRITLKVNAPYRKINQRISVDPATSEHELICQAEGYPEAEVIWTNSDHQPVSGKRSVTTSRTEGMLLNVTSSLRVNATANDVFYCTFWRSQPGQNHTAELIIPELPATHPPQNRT

[4] = biological target: T1, PD-L1 on PD-L1 overexpressing CHO-K1 …; assay: flow cytometry on PD-L1 overexpressing CHO-K1 cells, AF488 goat anti human IgG Fab secondary, MFI
Method: as §1, §2, §3

[5] = biological target: T1, PD-L1 on PD-L1 overexpressing CHO-K1 …; assay: cell-based or functional assay; remark: listed apart in the source

T1 sequence (Q9NZQ7 19-290 limits assumed): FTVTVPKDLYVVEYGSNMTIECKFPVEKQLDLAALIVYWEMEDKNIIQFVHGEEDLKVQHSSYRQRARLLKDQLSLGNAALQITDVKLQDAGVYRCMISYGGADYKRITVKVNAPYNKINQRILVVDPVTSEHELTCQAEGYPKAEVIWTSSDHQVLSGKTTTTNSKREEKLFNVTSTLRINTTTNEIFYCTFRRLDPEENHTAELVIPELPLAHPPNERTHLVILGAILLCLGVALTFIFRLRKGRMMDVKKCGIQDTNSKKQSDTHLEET

| PD-1/PD-L1 Interaction Blocking Reporter Assay IC50 [1] [nM] | KD [2] [nM] | Kd [2] [nM] | EC50 [3] [nM] | binding result (Mouse PD-L1) | EC50 (read off the curve) [4] [nM] | IC50 (read off the curve) [5] [nM] | Binder |
| --- | --- | --- | --- | --- | --- | --- | --- |
| 2.43 | < 20 | 17.2 | 0.523 | no binding |  |  | antibody designated P22 (antibody, human IgG1, kappa, V domains shown, Tested as full length IgG) VH: EVQLVESGGGLVQPGGSLRLSCAASGFTFSSYYIHWVRQAPGKGLEWVAWITSHGYSTKYADSVKGRFTISADTSKNTAYLQMNSLRAEDTAVYYCARDSVIYGLDYWGQGTLVTAST VL: DIQMTQSPSSLSASVGDRVTITCRASQSVSSAVAWYQQKPGKAPKLLIYSASSLYSGVPSRFSGSRSGTDFTLTISSLQPEDFATYYCQQYYTSPYTFGQGTKVEIKR |
| 4.98 | < 20 | 17.5 | 1.62 | no binding | ~2 |  | antibody designated P24 (antibody, human IgG1, kappa, V domains shown, Tested as full length IgG) VH: EVQLVESGGGLVQPGGSLRLSCAASGFTFDQYYIHWVRQAPGKGLEWVAEIYPAGSYTYYADSVKGRFTISADTSKNTAYLQMNSLRAEDTAVYYCARGPYSVRYALDYWGQGTLVTAST VL: DIQMTQSPSSLSASVGDRVTITCRASQSVSSAVAWYQQKPGKAPKLLIYSASSLYSGVPSRFSGSRSGTDFTLTISSLQPEDFATYYCQQVSYSPYTFGQGTKVEIKR |
| 1.23 | < 20 | 13 | 0.552 | no binding |  | ~2 | antibody designated P31.2 (antibody, human IgG1, kappa, V domains shown, Tested as full length IgG) VH: EVQLVESGGGLVQPGGSLRLSCAASGFTFSSYYIHWVRQAPGKGLEWVATISSGGGFTYYADSVKGRFTISADTSKNTAYLQMNSLRAEDTAVYYCARGYTLTPVLDYWGQGTLVTAST VL: DIQMTQSPSSLSASVGDRVTITCRASQSVSSAVAWYQQKPGKAPKLLIYSASSLYSGVPSRFSGSRSGTDFTLTISSLQPEDFATYYCQQFGAEPITFGQGTKVEIKR |
